# Measurements taken from the supplement of paper PMC10567573.
# ± gives the standard deviation.
# Experiment: protein stability index of a GFP-peptide fusion (GPS, HEK-293T) (PSI 1-6); higher = more stable
# [1] = treatment: DMSO, c terminus: a fixed tail appended
# [2] = treatment: MLN4924 1 uM, 8 h, c terminus: a fixed tail appended
# 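Further: 24-mer peptide tiles fused after GFP, lentivirally expressed, FACS-sorted into six equal bins by GFP/DsRed ratio, decoded by Illumina sequencing, PSI is the read-weighted mean bin number.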
Sequence,protein stability index [1],protein stability index [2],"protein stability index (treatment: DMSO, c terminus: native)","protein stability index (treatment: MLN4924 1 uM, 8 h, c terminus: native)"
AADGPTVCCNPYHFSRLCGPESPP [SMAD6],3.65 ± 0.11,3.76 ± 0.24,–,–
AAIAFTLALFSHLVNHVNIRLQAE [SMG5],3.22 ± 0.4,3.46 ± 0.37,–,–
AANPRPDALMKEQLVEMTGLSPRV [ISL2],4.17 ± 0.27,4.19 ± 0.33,–,–
AAPEGKRSLANGPNAGEQPGQVAG [EID1],5.44 ± 0.38,5.22 ± 0.16,–,–
AAPWPMAFPYQYPPPPHPYNPHPG [DVL3],2.62 ± 0.26,2.85 ± 0.21,–,–
AAQNGDESSTRLLLEKNASVNEVD [RIPK4],5.37 ± 0.24,5.48 ± 0.27,–,–
ACPVCSKMVPRYDLNRHLDEMCAN [FAN1],2.6 ± 0.49,2.27 ± 0.17,–,–
ADEDDDRDVALQIHFTLIQAFCCE [GADD45A],2.28 ± 0.35,2.36 ± 0.085,–,–
ADILAGREDNSGSDVLIGDILVLL [SLC35F2],2.48 ± 0.26,2.43 ± 0.18,–,–
AEALGKLLQQNKSIQSLTLEWNSL [LRRC45],2.13 ± 0.16,2.25 ± 0.32,–,–
AECFRIFDRNADGYIDPEELAEIF [TNNC2],5.32 ± 0.21,5.09 ± 0.15,–,–
AEDGGAYLATAKVLITVEDVNDNS [PCDHGA10],4.4 ± 0.21,4.36 ± 0.29,–,–
AEDWFFSKTEELNREVATNSELVQ [KRT17],4.87 ± 0.2,4.84 ± 0.07,–,–
AELHAHGPAAFVDYFERNWEPRRD [ZSWIM9],3.89 ± 0.3,4.07 ± 0.23,–,–
AEQEALTGECKELEKKNEALKERA [ATF4],5.3 ± 0.28,5.28 ± 0.27,–,–
AERLEVSVDGLTLSPDPEERPGAE [ACBD3],5.29 ± 0.45,5.56 ± 0.3,–,–
AEVSWEPGRREGCDICAGKAGCPI [RPS21],3.29 ± 0.31,3.89 ± 0.26,–,–
AEVVKIRDSFSNQNTETKDTKSR [DLC1],–,–,2.89 ± 0.56,3.47 ± 0.74
AFASTCLLSRFSVGIFHLMQIAVP [TMEM175],3.02 ± 0.29,3 ± 0.22,–,–
AFFKRTIQGNIEYSCPATNECEIT [ESRRG],3.11 ± 0.25,3.23 ± 0.27,–,–
AFSQAISAIQALRSSVSRVFDCLK [MED27],3.69 ± 0.36,3.41 ± 0.15,–,–
AGFAQLTHLLMGLAGGKLILSLEG [HDAC6],3.56 ± 0.82,3.05 ± 0.82,–,–

Sequence,protein stability index [1],protein stability index [2],"protein stability index (treatment: DMSO, c terminus: native)","protein stability index (treatment: MLN4924 1 uM, 8 h, c terminus: native)"
AGGDVPHKTHQAPASASSLPGTGA [DYRK1B],4.89 ± 0.099,4.87 ± 0.28,–,–
AGGTSDDPEPSGPHLPRVMLPGVL [SCNN1D],4.14 ± 0.21,4.16 ± 0.13,–,–
AGILSNLTCNNYKNKMMVCQVGGI [CTNNB1],2.17 ± 0.3,2.11 ± 0.37,–,–
AGLEDEDVIIEVNGVNVLDEPYEK [PDZK1],5.05 ± 0.35,5 ± 0.27,–,–
AHELGHSLGLSHSTDIGALMYPSY [MMP1],3.14 ± 0.18,2.9 ± 0.14,–,–
AHRIAAQTLLGTAKMLLHEGQHPA [PYCR3],2.97 ± 0.31,2.95 ± 0.42,–,–
AILFTRQDLCGVSTCDTLGMADVG [ADAMTS4],1.8 ± 0.28,2.66 ± 0.22,–,–
AIMNALIEAGAHMDATNAFKKTAY [FEM1A],2.51 ± 0.39,2.11 ± 0.35,–,–
AIPYLEHIIHVWEETGSRFHNCLI [VPS39],2.31 ± 0.4,2.36 ± 0.54,–,–
AKLGTQAEKDRRLKKKHQLLEDAR [PPFIA4],4.26 ± 0.37,4.44 ± 0.1,–,–
AKVDGETASDSESRAESAPLPVSA [CDS2],5.57 ± 0.15,5.5 ± 0.27,–,–
ALAVKAGHGYDSKKQQELTAAVLG [ZBED1],3.82 ± 0.24,3.87 ± 0.25,–,–
ALDKQHSRDSAAITHSTYSLPASS [NOL4L],4.57 ± 0.065,4.5 ± 0.065,–,–
ALIICYNWLHRRLAGQFLEELRKF [MOG],2.64 ± 0.65,2.47 ± 0.57,–,–
ALKYWKKAMNMRYSDRTNIISKPV [FEM1C],2.5 ± 0.52,2.28 ± 0.31,–,–
ALPIATAFTEYVHAYFRGHSPSCL [FCHO1],2.73 ± 0.55,2.78 ± 0.57,–,–
ALTRLERHLERKAWVANFERPRMN [CRY1],2.42 ± 0.048,2.66 ± 0.6,–,–
ANETYENNFDNLDFDLDLVPWESD [ATF6],5.07 ± 0.24,4.82 ± 0.23,–,–
ANPYWTSRGSSVSMSGGRFRCPTC [TRIM63],2.65 ± 0.47,3.1 ± 0.4,–,–
APELLGGAEPGTYLTGTINGDPES [ADAMTS4],5.73 ± 0.28,5.51 ± 0.36,–,–
APNSLSAPTMLHNSSGDFSQAHST [TRAF3IP2],4.84 ± 0.14,4.78 ± 0.28,–,–
APRTSSCAERLQSEEQVSKNLFGP [FCHO1],4.21 ± 0.17,4.17 ± 0.31,–,–

Sequence,protein stability index [1],protein stability index [2],"protein stability index (treatment: DMSO, c terminus: native)","protein stability index (treatment: MLN4924 1 uM, 8 h, c terminus: native)"
AQKTALLQDGRRKVHYLFPDGKEM [DPCD],3.29 ± 0.22,3.62 ± 0.23,–,–
ARKAMRNGISPIIIDNTNLHAWEM [N4BP2L1],2.33 ± 0.25,2.25 ± 0.42,–,–
ARYGHLDMVEFLLEQCSASIEVGG [FEM1C],2.48 ± 0.5,2.14 ± 0.36,–,–
ASAAARLGCNRQSWCLKRYDLEYW [TRIM14],2.29 ± 0.7,1.86 ± 0.27,–,–
ASALTLVLGGRRLRRAWFSWPRAS [SCNN1D],2.13 ± 0.39,2.05 ± 0.28,–,–
ASCSKNCTNSPAIVRFSGQSRGVP [FBXO34],3.68 ± 0.27,3.63 ± 0.25,–,–
ASDYFKAMFTGGMKEQDLMCIKLH [KLHL13],2.13 ± 0.17,2.13 ± 0.25,–,–
ASIQNHVRKREAPAPEAESKQTEK [EFHC1],5.36 ± 0.28,5.32 ± 0.37,–,–
ASQSLGSPMYFFLASLSFIDTVYS [OR4A15],2.89 ± 0.57,2.67 ± 0.96,–,–
ATDYLRYKPVVLLQGLSLIVTWFM [SLC19A2],2.35 ± 0.12,2.42 ± 0.19,–,–
ATFSGFKKEQRRLGIPKNPWLWSE [ETS2],2.28 ± 0.18,2.57 ± 0.52,–,–
ATRSTTQSNRTSRLIGKKMNRSVS [WEE1],4.27 ± 0.28,4.21 ± 0.3,–,–
AVFMWPGKDSRWLPSLVLARLVFV [SLC29A1],3.25 ± 0.68,2.67 ± 0.34,–,–
AVPKFMKRIKVPDYKDRSVFGVPL [DLC1],2.33 ± 0.15,2.4 ± 0.25,–,–
CAFLLLRLLVGLALATLRVLRGLA [TMEM175],3.56 ± 0.37,3.35 ± 0.086,–,–
CAIQMFSFLFLGCSHSFLLAVMGY [OR10K2],3.41 ± 0.14,3.46 ± 0.37,–,–
CEKTFNRKDHLKNHLQTHDPNKMA [PLAGL1],4.31 ± 0.26,4.42 ± 0.16,–,–
CGCGSFCRLGYGCGYEGCRYGCGH [KRTAP19-2],2.55 ± 0.44,2.62 ± 0.46,–,–
CGRAFSRKSLLVVHQRTHTGEKPH [ZNF649],2.69 ± 0.26,2.64 ± 0.093,–,–
CGRRGIKVWSLTGQVAEDRFPESH [TLE6],2.79 ± 0.27,3.11 ± 0.16,–,–
CHLFSTYVASHKIEKEEQEKKRKE [ACBD3],4.41 ± 0.41,4.43 ± 0.21,–,–
